Results from US10052364B2, “Osteocalcin as a treatment for cognitive disorders” (THE TRUSTEES OF COLUMBIA UNIVERSITY IN THE CITY OF NEW YORK, priority 2013, dated 2018).

Test: Ex vivo dual perfusion of the mouse placenta (maternal-fetal transport)
Format: in vitro ADME
Conditions: 300 ng/ml through the uterine artery
Protocol: FIG. 6. Maternal osteocalcin favors fetal neurogenesis. (A) Expression of osteocalcin (qPCR) in bone, brain, and placenta of WT and Ocn^−/− newborns (postnatal day [P] 0) and embryos (E13.5-E18.5). (B) Osteocalcin circulating levels in WT or Ocn^−/− newborns (P0) and embryos (E13.5-E18.5). (C) Ex vivo dual-perfusion system that monitors the transport of osteocalcin across the placenta. Uncarboxylated mouse osteocalcin (300 ng/ml) was injected through the uterine artery in placentas obtained from WT mice at E14.5, E15.5, and E18.5 of pregnancy. Osteocalcin in fetal eluates is represented as % of maternal input. (D) Circulating levels of osteocalcin in WT embryos originating from WT or Ocn^+/− mothers, of Ocn^+/− embryos originating from Ocn^+/− Ocn^−/− mothers, and of Ocn^−/− embryos originating from Ocn^+/− or Ocn^−/− mothers. Measurements were performed at E16.5 and E18.5. […]
Maternal-fetal transport of osteocalcin was monitored using ex vivo dual perfusion of the mouse placenta (Goeden & Bonnin, 2013, Nature Protocols 8:66-74). […] Osteocalcin transport through the placenta was analyzed by measuring the concentration of osteocalcin present in fetal eluates obtained through the umbilical vein, each time point (1-9) corresponding to a 10 minute collection period (at 5 μl/min). […]

B1: uncarboxylated osteocalcin: Recombinant osteocalcin bacterially produced, cleaved from the GST subunit; completely undercarboxylated at all three sites (protein, listed as Homo sapiens)
chain: MRALTLLALLALAALCIAGQAGAKPSGAESSKGAAFVSKQEGSEVVKRPRRYLYQWLGAPVPYPDPLEPRREVCELNPDCDELADHIGFQEAYRRFYGPV
modifications: uncarboxylated
notes: Recombinant osteocalcin bacterially produced, cleaved from the GST subunit; completely undercarboxylated at all three sites
transport across the placenta, onset (WT placentas): begins to cross the placenta at day 14.5 of gestation | transplacental transfer to the fetal circulation at day 15.5 or 18.5 of gestation (compared with day 14.5): larger transplacental transfer
